Assay results taken from patent US20200031915A1, “IMMUNOGLOBULIN-BINDING PEPTIDE WITH IMPROVED STABILITY” (KANEKA CORPORATION, priority 2017, published 2020).

Target: T1, Fab fragment of humanized monoclonal IgG (Infliximab) (Homo sapiens, UniProt P01834+P01857)
T1 construct: fragmented into a Fab fragment and an Fc fragment by using papain, and the Fc fragment and Fab fragment were purified; purchased Mitsubishi Tanabe Pharma Corporation Remicade (Infliximab)
Experiment: Residual Fab-binding activity of GB1#-N08K after alkali treatment (Biacore SPR)
Details: 15 mM NaOH final (0.1 mL of 45 mM NaOH added to 0.2 mL of 20 μM peptide), 25° C., 2 hours; ratio to before treatment as 100%; N=4

T1 sequence (P01857 with tags, fused parts or gaps limits assumed, other chains not shown): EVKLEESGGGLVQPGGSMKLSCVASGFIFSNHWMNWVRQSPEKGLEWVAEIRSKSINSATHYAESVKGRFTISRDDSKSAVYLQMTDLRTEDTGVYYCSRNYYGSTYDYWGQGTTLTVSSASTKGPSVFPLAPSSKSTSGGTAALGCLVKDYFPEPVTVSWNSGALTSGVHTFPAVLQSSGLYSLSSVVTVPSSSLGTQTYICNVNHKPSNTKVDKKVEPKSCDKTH

Row | Substance | residual binding activity to Fab after alkali treatment [%]
1 | GB1#-N08K: GB1#-Cont (SEQ ID NO: 4), strong binding ability to Fab, with mutation N08K introduced; amino acid SEQ ID NO: 32 (TTYKLILKGKTLTGYTTTIAVDAATAEKVLKQFANDNGVDGEWTYDDATKTFTVTE; oligo DNA) | 80
2 | GB1#-N08A: Comparative example: GB1#-Cont (SEQ ID NO: 4) with mutation N08A; amino acid SEQ ID NO: 41 (TTYKLILAGKTLTGYTTTIAVDAATAEKVLKQFANDNGVDGEWTYDDATKTFTVTE; Altered SpG) | 68
